Data from patent CN109776681A.

Molecular target: 人IgG蛋白 (human)
Assay: BLI (Octet RED96), human IgG loaded on the sensor, nanobody at 50 μg/mL in solution

B1: 抗免疫球蛋白G的Fc段的纳米抗体 (编号为I4的阳性克隆) (VHH)
VHH: QVQLVESGGGLVQAGGSLRLSCAASGGTFYSYAMGWFRQAPGKKREFVAAIRWTSGITYYADSVKDRFTISRDNAKNTVYLQMTGLKPEDTAVYYCALGPDNSDSYDYWGQGTQVTVSS
B1 showed a Kd of 3.69 nM, a koff of 0.00157 s⁻¹ and a kon of 426000 M⁻¹ s⁻¹.
